{"source": "paper PMC8537613", "biological_target": "NiV F clamp (Nipah virus (Malaysia strain)) (UniProt Q9IH63)", "assay": "SEC"}
{"substance": "NiV F clamp (from UniProt Q9IH63 27-483)", "values": [{"measurement": "stoichiometry N", "result": 3}]}
